Among the data in patent US8865867 are IC50 of inhibition of HIV-1 replication in MDM, 7 days, Fold Decrease in Anti-HIV activity (IC50 of mutant / IC50 of wild-type BanLec) and IC50(nM), inhibition of infection of TZM-bl cells by pseudotyped HIV-1 values, retold here.

Experiment [1] deals with HIV-1 envelope (isolate used on monocyte-derived macrophages, not named) (HIV-1). In words: cell-based or functional assay.
The target of experiment [2] is HIV-1 consensus subtype C envelope (HIV-1). In words: cell-based or functional assay.

BanLec: in experiment [1], the IC50 of inhibition of HIV-1 replication in MDM, 7 days was determined as 9.72 nM.
In experiment [2], BanLec H84A showed a Fold Decrease in Anti-HIV activity (IC50 of mutant / IC50 of wild-type BanLec) of 2.5 fold and an IC50(nM), inhibition of infection of TZM-bl cells by pseudotyped HIV-1 of 0.7 nM.
Taken in the same sequence, the figures for BanLec H84M were 21 fold and 7.7 nM.
As for BanLec H84S, in experiment [2], the Fold Decrease in Anti-HIV activity (IC50 of mutant / IC50 of wild-type BanLec) was 4.1 fold and the IC50(nM), inhibition of infection of TZM-bl cells by pseudotyped HIV-1 came out at 1.6 nM.
On to BanLec H84T, for which, in experiment [2], the Fold Decrease in Anti-HIV activity (IC50 of mutant / IC50 of wild-type BanLec) worked out at 23 fold and the IC50(nM), inhibition of infection of TZM-bl cells by pseudotyped HIV-1 worked out at 7 nM.
Substance BanLec H84Y came in with an IC50(nM), inhibition of infection of TZM-bl cells by pseudotyped HIV-1 in experiment [2] of 0.29 nM.
